Laboratory results as given in publication PMC6043480, “Molecular basis for the inhibition of the methyl-lysine binding function of 53BP1 by TIRR” (Nature Communications, 2018).
Blank lines part the entries; values can stand above or below the binder they belong to. Ends that are not written are not given here. dimethyl = dimethyl-lysine

B1: Tudor interacting repair regulator (TIRR), residues 6-211 (domain or fragment, human, UniProt Q9BRJ7 6-211, looked up)
chain: VPELKQISRVEAMRLGPGWSHSCHAMLYAANPGQLFGRIPMRFSVLMQMRFDGLLGFPGGFVDRRFWSLEDGLNRVLGLGLGCLRLTEADYLSSHLTEGPHRVVAHLYARQLTLEQLHAVEISAVHSRDHGLEVLGLVRVPLYTQKDRVGGFPNFLSNAFVSTAKCQLLFALKVLNMMPEEKLVEALAAATEKQKKALEKLLPASS
notes: two TIRR molecules in the crystal; also called NUDT16L1; wild-type TIRR; source: E. coli BL21 (DE3), purified (Ni-chelating Sepharose, 3C protease, Superdex 200 Increase); not shown: His6, N-terminal, cleaved
B2: 53BP1 tandem Tudor domain (residues 1459-1634) (domain or fragment, human, UniProt Q12888 1459-1634, looked up)
chain: RSDSPEIPFQAAAGPSDGLDASSPGNSFVGLRVVAKWSSNGYFYSGKITRDVGAGKYKLLFDDGYECDVLGKDILLCDPIPLDTEVTALSEDEYFSAGVVKGHRKESGELYYSIEKEGQRKWYKRMAVILSLEQGNRLREQYGLGPYEAVTPLTKAADISLDNLVEGKRKRRSNVS
notes: also called 53BP1 TTD; TTD; source: E. coli BL21 (DE3), purified (Ni-chelating Sepharose, 3C protease, Source 15Q, Superdex 200 Increase); not shown: His6, N-terminal, cleaved

Legend:
[1] = target: the molecule itself; assay: AUC; sedimentation velocity, 60,000 rpm, 20 °C, 10 mM Tris-HCl pH 8.0, 200 mM NaCl, 3 mM DTT; TIRR 53 μM, TTD 35 μM, mixture 20 μM TIRR with 20 μM TTD
[2] = target: B1; assay: as above; details: both partners purified
[3] = target: B1; assay: ITC; 25 °C, PBS pH 7.0 with 140 mM NaCl; 150 μM 53BP1 TTD injected into 15 μM TIRR or its mutants; 80-100 μM TTD mutant into 8-10 μM TIRR; 750 μM H4K20me2 peptide into 37.5 μM TTD; details: both partners purified
[4] = target: B2; assay: as above; details: both partners purified

Binder: B1
stoichiometry N [1]: 2

Binder: B2
stoichiometry N [2]: 1
Kd [3]: ~780 nM

binding result [4]: binds
B3: H4K20me2 peptide (residues 12-25) (peptide, UniProt P62805 13-26, looked up)
peptide: KGGAKRHRK(dimethyl)VLRDN
notes: histone H4, residues 12-25, dimethylated on lysine 20; Peptide used in ITC
